Reference: PMC5736220, “Using thermal scanning assays to test protein-protein interactions of inner-ear cadherins” (PLoS ONE, 2017)

What was measured:
Details in all cases: both partners purified
[1] = target: T1, protocadherin-15 EC1+2, wild type, His-tagged (mouse, UniProt Q99PJ1 27-259); test: SPR; Biacore T100, Ni-NTA chip, 6xHis pcdh15 immobilised, tag-free cdh23 0.25 to 30 μM injected, 25°C, SEC buffer; KD from binding isotherms (Biacore T100 evaluation software)
T1 construct: Protocadherin-15 (PCDH15), mouse, N-terminal fragment EC1+2; pET21a, NdeI/XhoI; predicted molecular weight 27.5 kDa; Held on the Ni-NTA chip by its His tag in SPR; also called pcdh15; pcdh15(WT); not shown: His6, C-terminal, kept

[2] = target: T2, protocadherin-15 EC1+2 G16D, His-tagged (mouse, UniProt Q99PJ1 27-259, G16D); test: as above
T2 construct: Protocadherin-15 (PCDH15), mouse, N-terminal fragment EC1+2; Mutant of m12 made with QuikChange; Held on the Ni-NTA chip by its His tag in SPR; also called pcdh15(G16D); not shown: His6, C-terminal, kept

[3] = target: T3, protocadherin-15 EC1+2 Q165L, His-tagged (mouse, UniProt Q99PJ1 27-259, Q165L); test: as above
T3 construct: Protocadherin-15 (PCDH15), mouse, N-terminal fragment EC1+2; Mutant of m12 made with QuikChange; Held on the Ni-NTA chip by its His tag in SPR; also called pcdh15(Q165L); not shown: His6, C-terminal, kept

[4] = target: T1, protocadherin-15 EC1+2, wild type, …; test: SPR; Biacore T100, Ni-NTA chip, 6xHis pcdh15 immobilised, tag-free cdh23 0.25 to 30 μM injected, 25°C, SEC buffer; global kinetic fit with EVILFIT (distribution model)
[5] = target: T2, protocadherin-15 EC1+2 G16D, His-tagged; test: as above
[6] = target: T3, protocadherin-15 EC1+2 Q165L, His-tagged; test: as above
[7] = target: T1, protocadherin-15 EC1+2, wild type, …; test: SEC; analytical, Superdex 75 3.2/3.0, SEC buffer, 4°C, 100 μL loop, 0.05 mL/min; complex read from a decrease in elution volume of the mixture

Kd [1] | Kd [2] | Kd [3] | Kd [4] | koff [4] | kon [4] | Kd [5] | koff [5] | kon [5] | Kd [6] | koff [6] | kon [6] | binding result [7] | Binder
1380 ± 360 nM | 1110 ± 70 nM | 2600 nM | 3720 ± 1650 nM | 0.2 ± 0.04 s⁻¹ | 61900 M⁻¹ s⁻¹ | 2000 ± 990 nM | 0.17 ± 0.01 s⁻¹ | 94800 M⁻¹ s⁻¹ | 3940 ± 1110 nM | 0.22 ± 0.04 s⁻¹ | 55900 M⁻¹ s⁻¹ | – | cadherin-23 EC1+2 (residues 1-205), wild type, tagless (domain or fragment, mouse, an Ala residue included between CDH23 EC2 and the intein tag to improve cleavage efficiency; pTXB1, NdeI/SapI; That the added Ala stays on the C-terminus after thiol-induced cleavage, and that a start Met precedes residue 1, are surmised; also called tag-free cdh23; tagless cdh23) QVNRLPFFTNHFFDTYLLISEDTPVGSSVTQLLARDMDNDPLVFGVSGEEASRFFAVEPDTGVVWLRQPLDRETKSEFTVEFSVSDHQGVITRKVNIQVGDVNDNAPTFHNQPYSVRIPENTPVGTPIFIVNATDPDLGAGGSVLYSFQPPSPFFAIDSARGIVTVIQELDYEVTQAYQLTVNATDQDKTRPLSTLANLAIIITDA
– | – | – | – | – | – | – | – | – | – | – | – | binds | cadherin-23 EC1+2 T190W, His-tagged (domain or fragment, mouse, Cadherin-23 (CDH23), mouse, N-terminal fragment EC1+2; Mutant of m1 made with QuikChange; also called cdh23(T190W)) QVNRLPFFTNHFFDTYLLISEDTPVGSSVTQLLARDMDNDPLVFGVSGEEASRFFAVEPDTGVVWLRQPLDRETKSEFTVEFSVSDHQGVITRKVNIQVGDVNDNAPTFHNQPYSVRIPENTPVGTPIFIVNATDPDLGAGGSVLYSFQPPSPFFAIDSARGIVTVIQELDYEVTQAYQLTVNATDQDKWRPLSTLANLAIIITD
